Our source for the percent coprecipitated and percent coimmunoprecipitated values is article PMC2171414.

What all share (assay): co-IP
Test [1] deals with Mdv1p-HTM (S. cerevisiae) (UniProt P47025).
The target in test [2] is M3TH-Fis1p (3XMyc/TEV/His8-Fis1p) (S. cerevisiae) (UniProt P40515).
For test [3], the target named is Caf4p-HTM (S. cerevisiae) (UniProt P36130).

Sequence of UniProt P40515 (P40515 whole entry): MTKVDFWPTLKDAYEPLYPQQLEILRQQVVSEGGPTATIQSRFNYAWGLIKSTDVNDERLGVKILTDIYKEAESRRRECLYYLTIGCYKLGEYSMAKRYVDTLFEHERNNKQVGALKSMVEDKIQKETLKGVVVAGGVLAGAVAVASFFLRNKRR

“Caf4p-HA (Caf4p wt, residues 1–659) (from UniProt P36130 1-643) (natural protein)”: the figures for the percent coprecipitated in test [1] and in test [2] were 1% and 5%, respectively. For the same molecule, the percent coimmunoprecipitated in test [3] was determined as 5%. In test [1], “Caf4p-N-HA (residues 1–274) (from UniProt P36130 1-274) (domain or fragment)” had a percent coprecipitated of 1%. In test [3], the percent coimmunoprecipitated was 5%.

B1: Mdv1p-N-HA (residues 1–300) (domain or fragment)
chain: MSVNDQITHIGKTLSTTASAFLNYQKSNSNTQDVLTNNGPYKNLLSNTVNNASSTSYFYKRTEHGRFVKNASNTFEDIYSKTRRGDVFRNKFTDNKTCFRMLTYISDDLLNEIPTKEGLKSDADGKLLTEGGENENLRKNASKKETSLFQGFKSYLPIAELAIENTERLNYDTNGTSGTVGAKDVMSKTNERDEIHTELPNFQDSFLIPPGVETKKISSSYSPSALKSFSQTLVNSLEFLNIQKNSTLSEIRDIEVEVENLRQKKEKLLGKIANIEQNQLLLEDNLKQIDDRLDFLEEYG
For the molecule B1, in test [3], the percent coprecipitated was 1%.

B2: Mdv1p-HA (Mdv1 wt, residues 1–714) (natural protein)
chain: MSVNDQITHIGKTLSTTASAFLNYQKSNSNTQDVLTNNGPYKNLLSNTVNNASSTSYFYKRTEHGRFVKNASNTFEDIYSKTRRGDVFRNKFTDNKTCFRMLTYISDDLLNEIPTKEGLKSDADGKLLTEGGENENLRKNASKKETSLFQGFKSYLPIAELAIENTERLNYDTNGTSGTVGAKDVMSKTNERDEIHTELPNFQDSFLIPPGVETKKISSSYSPSALKSFSQTLVNSLEFLNIQKNSTLSEIRDIEVEVENLRQKKEKLLGKIANIEQNQLLLEDNLKQIDDRLDFLEEYGLEVIEANSDENAEDDGMSERKALKNDAIRNEGVTTESISSEASNLPPRRRQQLRDDNSLNRLGAFYSKSKKRHRKSFPTFQQLYEPGTKIGSIMSTHDDFLTCLDFDAPFGTLCTAGYLDHTVKIWDLSKQNKIGELAGHLATINCMQINRDYGTLVTGGRDAALKLWNLNLAQQLYQETQNLTSPTNHIDSPCVHTFEAHTDEVTALSLDPSFLVSGSQDRTIRQWDLRSGKCLQTIDLSFANVLTTSTNVDLSKSTLLTQRNERPSIGALQSFDAALATGTKDGVVRLWDLRSGKVIRTLKGHTDAITSLKFDSACLVTGSYDRTVRIWDLRTGLLNKFHAYSAPVLSLDLFQENAAVVVADEPSVQIYDSEKDESWSCVEQGNETSVSTVKYKENYMVEGRENGDVNIWAV
On to B2, for which, in test [3], the percent coprecipitated came out at 1%.
